Measurements: doi:10.1101/2020.11.19.389494, “The structural mechanism underlying the antithetic effect of homologous RND1 and RhoD GTPases in plexin regulation” (bioRxiv, 2020)

Molecular target: T1, human RhoD (residues 8-194) with the Q75L mutation, bound to GMP-PNP (human, UniProt O00212 8-194, Q75L)
T1 construct: Loaded with the GTP analogue GMP-PNP and Mg2+ before crystallisation; His6 tag removed with human rhinovirus 3C protease; also called GMP-PNP-loaded RhoD; source: E. coli BL21 (DE3), purified (HisTrap, Resource Q, Superdex 75); not shown: His6, N-terminal, cleaved
T1 sequence (looked up): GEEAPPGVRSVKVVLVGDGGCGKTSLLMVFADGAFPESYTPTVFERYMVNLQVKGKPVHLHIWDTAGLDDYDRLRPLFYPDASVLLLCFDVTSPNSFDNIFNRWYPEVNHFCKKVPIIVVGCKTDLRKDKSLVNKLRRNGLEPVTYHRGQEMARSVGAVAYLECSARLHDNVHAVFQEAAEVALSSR
Test: crystal structure; Plexin B2 (1274-1842) and GMP-PNP-loaded RhoD mixed at 1:1 molar ratio, 6 mg/mL total; crystals grown over a month at 20 °C in 0.2 M MgCl2, 22 % PEG3350, 100 mM MIB pH 6.8; plexin B2 degraded to the RBD in the drops; 3.1 Å, molecular replacement
Conditions: both partners purified

B1: mouse plexin B2 Rho GTPase binding domain (RBD) (domain or fragment, UniProt B2RXS4 1463-1565, looked up)
chain: EYAPLTVSVIVQDEGIDAIPVKVLNCDTISQVKEKIIDQVYRTQPCSCWPKPDSVVLEWRPGSTAQILSDLDLTSQREGRWKRINTLMHYNVRDGATLILSKV
notes: Plexin B2, mouse; Expressed as the intracellular region without the juxtamembrane region (residues 1274-1842); it degraded in the crystallization drops and the crystal held only the RBD, of which residues 1463-1509 and 1510-1565 are described in the model; In the crystal two RBD chains form a domain-swapped dimer (swap between residues 1509 and 1510), which the authors regard as a crystallization …
binding result: binds
